Residue numbers refer to the chain shown, from its start.

The labels stand for the following.
B1: 449H9 chimeric antibody (antibody, V domains shown)
VH: QVQLQQSGAELVRPGSSVRISCKASGYAFSNYWMNWVKQRPGQGLEWIGQIYPGDGDTNYNGKFKNKATLTTDKSSSTAYMQLSSLTSEDSAVYFCARHYDYPYYYAMDYWGQGTSVTVSS
VL: DIQMTQSPSSLSASLGERVSLTCRASQDIGIALTWLQQEPDGTIKRLIYATSSLDSGVPKRFSGSRSGSDYTLTISSLESEDFVDYYCLQYIISPYTFGGGTKLEIK
notes: chimeric mAb
B2: 49C5 chimeric antibody (antibody, V domains shown)
VH: EVQLQQSGPELVKPGASVKISCKASGYTFTDYYMNWVKQSHGKSLEWIGDINPYSGGATNNQKFKGKATLTVDKSSSTAYIELRSLTSEDSAVYFCARGSIYYDSTANYFDYWGQGTTLTVSS
VL: DIQMTQSPASLSASVGETVTITCRASENIYSYLAWYQQKQGKSPQLLVYNAKSLTEGVPSRFSGSRSGTQFSLKINSLQPEDFGSYYCQHHYVTPWTFGGGTKLEIK
notes: chimeric mAb
B3: 493E10 chimeric antibody (antibody, V domains shown)
VH: DVQLVESGGGLVQPGGSRKLSCAASGFTFSSFGMHWVRQAPEKGLEWVAYISSGSSTIYYADTVKGRFTISRDNPKNTLFLQMTSLRSEDTAMYYCARNRAYHREAMDYWGQGTSVTVSS
VL: DIVLTQSPASLTVSLGQRATISCRASQSVSSSSYNYMHWYQQKPGQPPKLLIKSASNLESGVPARFSGSGSGTDFTLNIHPVEEEDTATYYCQHSWEIPYTFGGGTKLEIK
notes: chimeric mAb
B4: 367B8 chimeric antibody (antibody, V domains shown)
VH: QVQLQQPGTELVKPGASVKLSCKASGYTFTSYWMHWVKQRPEQGLEWIGNINPSNGNTNYNENFKSQATLTVDKSSSTAYMQLSSLTSEDSAVYYCARGGWDFDYWGQGTTLTVSS
VL: QVVLTQSPAIMSASPGEKVTMTCSASSSVRYIHWYQQRSGTSPKRWIYDTSKLTSGVPVRFSGSGSGTSYSLTISSMEAEDAATYYCQQWTSKPPWTFGGGTKLEIR
notes: chimeric mAb
B5: 353H11 chimeric antibody (antibody, V domains shown)
VH: B4 VH with G26D, N63K, S66N, Q67K, S88F
VL: B4 VL with I32M, V59A, Q89L
notes: chimeric mAb
B6: 389G2 chimeric antibody (antibody, V domains shown)
VH: B4 VH with N63R, Q67K, A92T
VL: B4 VL with Y70F, R107K
notes: chimeric mAb
B7: 109H7 chimeric antibody (antibody, V domains shown)
VH: QVQLQQSGAELMKPGASVKLSCKATGYTFTGYWIEWVKQRPGQGLEWIGETLPGRGSTNYNEKFKGKATFTADTSSNIVYMQLSSLTIEDSAIYYCARGRRDFDYWGQGTTLTVSS
VL: DIQMTQTTSSLSASLGDEVTISCSASQGINNYLNWYQQKPDGTVKLLIYYTSSLHSGVPSRFSGSGSGTDYSLTIINLEPEDIATYYCQQFSKLPFTFGSGTKLEIR
notes: chimeric mAb
B8: 425G1 chimeric antibody (antibody, V domains shown)
VH: EVQLQQSGAELVKPGASVKLSCTASGFNIKDTYMHWVKQRPEQGLEWIGRIDPANGHTIFASKFQGKATITADTSSNTAYMQLSSLTSGDTAVYYCGLFTMVVVPWYFDVWGTGTTVTVSS
VL: DIVMTQSHKFMSTSVGDRVSITCKASQDVSTAVAWYQQKPGQSPKLLIYWASTRHTGVPDRFTGSGSGTDYTLTISSVQAEDLALYYCQQHYSSPLTFGAGTKLELK
notes: chimeric mAb
B9: Hu286B4-8 (antibody, V domains shown)
VH: EVQLQESGPGLVKPSDTLSLTCAVSGYSISNNYYWNWIRQPPGKGLEWIGYITYDGSNNYNPSLKNRITMSRDTSKNQFSLKLSSVTAVDTAVYYCARGGGQLRFDYWGQGTTVTVSS
VL: DIQMTQSPSSLSASVGDRVTITCKASQSVSNEVTWYQQKPGKAPKMLIYYASNRYTGVPDRFSGSGYGTDFTFTISSLQPEDIATYYCQQDYSSPWTFGGGTKVEIK
notes: humanized
B10: Hu286B4-3 (antibody, V domains shown)
VH: B9 VH with I68V
VL: B9 VL
notes: humanized
B11: Hu286B4-13 (antibody, V domains shown)
VH: B9 VH with I49M, M70V
VL: B9 VL
notes: humanized
B12: Hu286B4-18 (antibody, V domains shown)
VH: B9 VH with S30T, I49M, M70V, A97T
VL: B9 VL
notes: humanized
B13: Hu286B4-5 (antibody, V domains shown)
VH: B9 VH with I68V
VL: B9 VL with D1S, Q3V, A43S, Y87F
notes: humanized
B14: Hu286B4-20 (antibody, V domains shown)
VH: B9 VH with S30T, I49M, M70V, A97T
VL: B9 VL with D1S, Q3V, A43S, Y87F
notes: humanized
B15: Hu286B4-15 (antibody, V domains shown)
VH: B9 VH with I49M, M70V
VL: B9 VL with D1S, Q3V, A43S, Y87F
notes: humanized

The target in one test is T1, human 5T4-His protein (human, UniProt Q13641 32-355).
T1 construct: also called recombinant 5T4 protein (human 5T4-his tag); human 5T4 protein; not shown: His tag
T1 sequence (looked up): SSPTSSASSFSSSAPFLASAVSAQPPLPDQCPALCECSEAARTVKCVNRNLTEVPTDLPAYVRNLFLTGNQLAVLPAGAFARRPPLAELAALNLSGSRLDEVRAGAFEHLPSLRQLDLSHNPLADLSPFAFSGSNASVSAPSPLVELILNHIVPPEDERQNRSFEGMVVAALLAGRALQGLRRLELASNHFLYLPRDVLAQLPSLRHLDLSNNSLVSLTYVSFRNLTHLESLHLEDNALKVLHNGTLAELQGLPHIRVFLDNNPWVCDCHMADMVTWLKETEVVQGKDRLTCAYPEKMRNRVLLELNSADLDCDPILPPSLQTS
The test is described as follows: ELISA, coated antigen. As for the experimental part: (§1) ELISA testing was carried out to evaluate the binding of chimeric antibodies to human and cynomolgus, respectively. The antibody portion of naptumomab (NeoTX) that targets 5T4 (abbreviated as naptumomab in the present disclosure), was generated and used as a benchmark.
(§2) Briefly, microtiter plates were coated with human and cynomolgus 5T4 proteins at […] in PBS, 100 μl/well at 4° C. overnight, then blocked with 150 μl/well of 1% BSA. Serial dilutions of chimeric antibodies were added to each well and incubated for 1 hour at RT. The plates were washed with PBS/Tween and then incubate with mouse-anti-human IgG Fc antibody conjugated with Horse Radish Peroxidase (HRP) for 30 mins at RT. After washing, the plates were developed with TMB substrate and analyzed by spectrophotometer at OD 450 nm. All the 5T4 chimeric mAbs bound to human and cynomolgus 5T4 (FIG. 1-2 and Table 3).
(ELISA stands for enzyme-linked immunosorbent assay.)
As usually defined, the EC50 is the midpoint of the concentration-response curve. B1 displayed an EC50 of 0.37 nM.

Consider B2, for which the EC50 was 0.6 nM.

B3 yielded an EC50 of 0.28 nM.

B4 came in with an EC50 of 0.86 nM. This EC50 lies about 3.1-fold higher than the previous one.

Turning to B5, the EC50 came out at 0.73 nM.

Molecule B6 had an EC50 of 0.23 nM.

For B7, the EC50 stood at 0.31 nM.

B8 showed a half-maximal effective concentration (EC50) of 0.29 nM.

The target of the next test is T2, cynomolgus 5T4 protein (cynomolgus monkey, UniProt Q4R8Y9 35-355, limits assumed).
T2 construct: Coated protein in ELISA; the screening step names a cyno 5T4-His protein; also called cyno 5T4; recombinant cyno 5T4-His protein
T2 sequence (looked up): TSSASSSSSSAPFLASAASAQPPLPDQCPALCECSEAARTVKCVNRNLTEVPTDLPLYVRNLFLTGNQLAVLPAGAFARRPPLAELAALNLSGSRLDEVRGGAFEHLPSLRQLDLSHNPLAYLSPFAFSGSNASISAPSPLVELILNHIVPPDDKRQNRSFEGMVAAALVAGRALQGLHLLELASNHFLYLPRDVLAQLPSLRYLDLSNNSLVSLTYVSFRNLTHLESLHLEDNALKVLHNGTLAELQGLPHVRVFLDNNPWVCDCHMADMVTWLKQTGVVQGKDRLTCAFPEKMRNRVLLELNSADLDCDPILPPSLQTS
The test is described as follows: ELISA, coated antigen. As for the experimental part:
as §1, §2
B1 displayed an EC50 of 0.1 nM.

In turn, B2 returned an EC50 of 0.18 nM.

In the case of B3, a half-maximal response (EC50) required 0.25 nM.

Regarding B4, a half-maximal effect (EC50) was put at 0.13 nM.

As for B5, a half-maximal effect (EC50) was put at 0.13 nM.

With B6, the EC50 is 0.19 nM.

B7 had an EC50 of 0.19 nM.

In turn, B8 came in with an EC50 of 0.23 nM. The EC50 values of the last two molecules are within 1.5-fold of each other.

Another test has as its target T1, human 5T4-His protein. The test is described as follows: ELISA, coated 5T4-His. As for the experimental part: To evaluate the binding activity of clones, the 286B4 chimeric antibody along with 286B4 humanized mAbs were subjected to ELISA test.
Briefly, microtiter plates were coated with human 5T4-His protein at 1 μg/ml in PBS, 100 μl/well at 4° C. overnight, then blocked with 150 μl/well of 1% BSA. 4-fold dilutions of tested antibodies starting from 20 nM were added to each well and incubated for 1 hour at 37° C. The plates were washed with PBS/Tween and then incubated with Goat Anti-Human IgG-HRP for 30 mins at 37° C. After washing, the plates were developed with TMB substrate and analyzed by spectrophotometer at OD 450 nm. As shown in FIG. 16 and Table 15, most of the humanized clones bound to human 5T4 with high potency.
The molecule B9 showed an EC50 of 0.68 nM. That is a sub-nanomolar value.

As to B10, the response was half-maximal at 0.51 nM (EC50).

In turn, B11 came in with an EC50 of 0.57 nM. The EC50 values of the last two molecules are within 1.5-fold of each other.

B12 came in with an EC50 of 0.42 nM. This EC50 and that of the molecule before are within 1.5-fold of each other.

As for B13, a half-maximal response (EC50) required 0.28 nM.

The molecule B14 registered an EC50 of 0.42 nM.

B15: it took 0.25 nM to reach a half-maximal effect (EC50). This EC50 is about 1.7-fold lower than that of the molecule before.

The next test has as its target T1, human 5T4-His protein. Briefly: SPR Biacore, Protein A capture. The procedure:
The binding of the chimeric mAbs from these clones against recombinant 5T4 protein (human 5T4-his tag) was tested with Biacore using a capture method. The mAbs were captured using Protein A chip. A serial dilution of human 5T4-his tag protein was injected over captured antibody for 2-3 mins at a flow rate of 30 μl/min. The antigen was allowed to dissociate for 360-1000 s. All the experiments were carried out on a Biacore T200. Data analysis was carried out using Biacore T200 evaluation software.
A general note: In SPR one partner is held on a chip, and binding of the other changes the refractive index at the surface.
As a reminder, the Kd is the concentration at which binding is half-saturated. Usually koff stands for the first-order rate constant of dissociation. The kon is a measure of how fast the partners come together. Low readings indicate slower complex formation, high ones faster complex formation. B1 had a Kd of 0.381 nM, a koff of 0.000115 s⁻¹ and a kon of 301000 M⁻¹ s⁻¹.

Turning to B2, the Kd was determined as 0.62 nM, the koff is 0.000337 s⁻¹ and the kon was found to be 544000 M⁻¹ s⁻¹.

In turn, B3 came in with a Kd of 0.626 nM, a koff of 0.000402 s⁻¹ and a kon of 642000 M⁻¹ s⁻¹.

In the case of B4, binding was characterised by a dissociation constant (Kd) of 0.285 nM, the koff was 0.000167 s⁻¹ and the kon was 588000 M⁻¹ s⁻¹.

Take B5: the affinity, expressed as Kd, was 0.24 nM; the koff was 9.63e-05 s⁻¹; the kon stood at 401000 M⁻¹ s⁻¹.

As to B6, the Kd stood at 0.49 nM, the koff worked out at 0.000138 s⁻¹ and the kon amounted to 282000 M⁻¹ s⁻¹.

For B7, binding was put at a Kd of 0.606 nM, the koff worked out at 0.000391 s⁻¹ and the kon was 645000 M⁻¹ s⁻¹.

For B8, the Kd worked out at 1.64 nM, the koff stood at 0.000215 s⁻¹ and the kon came to 131000 M⁻¹ s⁻¹.

The target of another test is T1, human 5T4-His protein. Briefly: SPR Biacore, Protein A capture. This is another data set of the same source. The procedure:
The binding of the 286B4 humanized antibodies to recombinant 5T4 protein (human 5T4-his tag) was tested with Biacore using a capture method. The mAbs were captured using Protein A chip. A serial dilution of human 5T4-his tag protein was injected over captured antibody for 3 mins at a flow rate of 30 μl/min. The antigen was allowed to dissociate for 280-800 s. All the experiments were carried out on a Biacore T200. Data analysis was carried out using the Biacore T200 evaluation software.
Consider B9, for which the Kd turned out to be 1.08 nM, the koff is 0.000103 s⁻¹ and the association rate constant (kon) came out at 94600 M⁻¹ s⁻¹.

Take B10: the affinity, expressed as Kd, was 1.14 nM; the koff turned out to be 0.000107 s⁻¹; the kon was 93400 M⁻¹ s⁻¹.

The molecule B11 had a Kd of 1.12 nM, a koff of 0.000107 s⁻¹ and a kon of 95500 M⁻¹ s⁻¹.

Turning to B12, the affinity, expressed as Kd, was 1.18 nM; the koff amounted to 0.000133 s⁻¹; the kon worked out at 113000 M⁻¹ s⁻¹.

As to B13, the Kd is 1.2 nM, the koff stood at 0.000128 s⁻¹ and the kon came to 106000 M⁻¹ s⁻¹.

Molecule B15 showed a Kd of 1.04 nM, a koff of 0.000114 s⁻¹ and a kon of 110000 M⁻¹ s⁻¹.
